In patent publication US20030204066A1 (published 2003):

T1: human lymphotoxin (TNFβ) (human, UniProt P01374 35-205, limits assumed)
T1 sequence (looked up): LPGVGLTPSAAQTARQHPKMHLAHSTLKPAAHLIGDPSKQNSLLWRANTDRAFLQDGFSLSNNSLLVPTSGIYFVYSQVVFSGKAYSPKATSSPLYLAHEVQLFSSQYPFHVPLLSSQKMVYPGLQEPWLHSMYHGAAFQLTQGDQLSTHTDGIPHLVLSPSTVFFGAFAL

B1: p75-sf2 (complete p75 extracellular domain / IgG1 heavy chain fusion) (Fc fusion)
chain 1: QLPAQVAFTPYAPEPGSTCRLREYYDQTAQMCCSKCSPGQHAKVFCTKTSDTVCDSCEDSTYTQLWNWVPECLSCGSRCSSDQVETQACTREQNRICTCRPGWYCALSKQEGCRLCAPLRKCRPGFGVARPGTETSDVVCKPCAPGTFSNTTSSTDICRPHQICNVVAIPGNASMDAVCTSTSPTRSMAPGAVHLPQPVSTRSQHTQPTPEPSTAPSTSFLLPMGPSPPAEGSTGDGTLVTVSS
chain 2: GTKLEIK
B2: p55-sf2 (p55 TNF receptor / IgG1 heavy chain single fusion with truncated light chain JCK) (Fc fusion)
chain 1: QVCPQGKYIHPQNNSICCTKCHKGTYLYNDCPGPGQDTDCRECESGSFTASENHLRHCLSCSKCRKEMGQVEISSCTVDRDTVCGCRKNQYRHYWSENLFQCFNCSLCLNGTVHLSCQEKQNTVCTCHAGFFLRENECVSCSNCKKSLECTKLCLPQIGTLVTVSS
chain 2: GTKLEIK
B3: p55-df2 (double fusion: p55 on both the IgG1 heavy chain and the kappa light chain) (Fc fusion)
chain 1: B2 chain 1
chain 2: DSVCPQGKYIHPQNNSICCTKCHKGTYLYNDCPGPGQDTDCRECESGSFTASENHLRHCLSCSKCRKEMGQVEISSCTVDRDTVCGCRKNQYRHYWSENLFQCFNCSLCLNGTVHLSCQEKQNTVCTCHAGFFLRENECVSCSNCKKSLECTKLCLPQIGTKLEIK
B4: p75P-sf2 (p75 amino acids 1-182 / IgG1 heavy chain fusion) (Fc fusion)
chain 1: QLPAQVAFTPYAPEPGSTCRLREYYDQTAQMCCSKCSPGQHAKVFCTKTSDTVCDSCEDSTYTQLWNWVPECLSCGSRCSSDQVETQACTREQNRICTCRPGWYCALSKQEGCRLCAPLRKCRPGFGVARPGTETSDVVCKPCAPGTFSNTTSSTDICRPHQICNVVAIPGNASMDAVCTSTSGTLVTVSS
chain 2: GTKLEIK

Legend:
human lymphotoxin (TNFβ) = target: T1, human lymphotoxin (TNFβ); assay: cell-based or functional assay
[1] = target: human tumor necrosis factor-α (TNFα) (human, UniProt P01375 77-233); assay: cell-based or functional assay
Chain of human tumor necrosis factor-α (TNFα) (P01375 77-233): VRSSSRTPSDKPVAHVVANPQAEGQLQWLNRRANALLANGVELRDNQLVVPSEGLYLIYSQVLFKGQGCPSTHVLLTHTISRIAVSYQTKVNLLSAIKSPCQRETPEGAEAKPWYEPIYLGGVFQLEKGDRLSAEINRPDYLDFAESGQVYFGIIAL

| Binder | amount needed for the same inhibition of TNFβ cytotoxicity, against p75P-sf2 (human lymphotoxin (TNFβ)) | IC50 = concentration of fusion protein required to inhibit 2 ng/ml (39.2 pM) TNFα by 50% (WEHI 164 cytotoxicity) [1] [pM] |
| --- | --- | --- |
| B1 | 3 fold (against p75P-sf2) | – |
| B2 | – | 70 |
| B3 | – | 55 |
| B4 | – | 70 |
